In article PMC7241556:

The sequences below were run on T1, Rsp (Staphylococcus aureus NCTC8325), ORF:0cc986df (assay: EMSA).
T1 sequence: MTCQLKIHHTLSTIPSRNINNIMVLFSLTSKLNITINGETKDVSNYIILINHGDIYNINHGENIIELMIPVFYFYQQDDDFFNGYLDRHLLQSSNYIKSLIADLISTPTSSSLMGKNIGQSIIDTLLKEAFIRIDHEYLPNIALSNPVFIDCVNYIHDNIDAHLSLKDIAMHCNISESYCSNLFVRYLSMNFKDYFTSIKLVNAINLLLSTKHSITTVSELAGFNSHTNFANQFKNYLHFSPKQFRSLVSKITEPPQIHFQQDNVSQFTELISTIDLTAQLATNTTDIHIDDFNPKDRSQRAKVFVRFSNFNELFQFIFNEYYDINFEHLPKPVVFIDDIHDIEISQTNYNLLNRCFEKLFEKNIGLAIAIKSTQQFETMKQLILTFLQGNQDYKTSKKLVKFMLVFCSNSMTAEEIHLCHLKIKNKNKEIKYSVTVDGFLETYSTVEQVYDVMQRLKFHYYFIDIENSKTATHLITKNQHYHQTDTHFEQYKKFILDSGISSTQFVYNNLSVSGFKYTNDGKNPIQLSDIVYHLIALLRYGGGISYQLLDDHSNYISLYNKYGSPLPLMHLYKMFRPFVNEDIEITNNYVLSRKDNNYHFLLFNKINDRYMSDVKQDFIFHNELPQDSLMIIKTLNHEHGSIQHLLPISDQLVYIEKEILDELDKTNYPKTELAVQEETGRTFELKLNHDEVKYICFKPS

Sequence | binding
AACCTTCCATTGAAAACACTCCTTAAAATTTAAATTTGAAGATAACAAAAACGTGCGTAGCTTTTAAATCACCGAAATGTTATTCGCTT (double strand) [psmβ promoter 89 bp] | no binding
ACTTAAATACGAATTCAGGCAACTTAATTGTGTTAAATACAGTTTTGAATGCCTAACTGTATTTCTTTTCTCTTTAAAATACAGTTAAGTACATTATAAGATGTTGTGCGGATAAACAAACTAATTGCATCAAATTTATTTTAAAATAACAACAACAAAACGTTAAGCGAATAACATTTCGGTGATTTAAAAGCTACGCACGTTTTTGTTATCTTCAAATTTAAATTTTAAGGAGTGTTTTCAATGGAAGGTT (double strand) [psmβ promoter 253 bp] | binds
GCCAGCGATGATACCCATTAAGATTACCTCCTTTGCTTATGAGTTAACTTCATTGTACATAGTTATCTTGTGCGTAATTGATTTT (double strand) [psmα promoter 85 bp] | no binding
TAGTGTTGTTGTTACTGAGCTGACTATACGTGTTTTCATTTTCATCATCCTTCTATTTTTTAAAACGATTTGAGGAAACAATAATCAATATGTCAATTTAGAATATTGCA (double strand) [hla promoter 110 bp] | no binding
TGATTTTAAAAATTTCCATGTTTTACATTTAAATGATAGATTTCAATATATATTAGGCAGGAGAGAGAAATATGACATGCCAACTTAAA (double strand) [rsp promoter 89 bp] | no binding
